{"source": "patent US20230416341A1", "about": "“IMPROVED THROMBIN INHIBITORS FOR TREATMENT OF THROMBOEMBOLIC CONDITIONS” (priority 2020, published 2023)", "binders": {"B1": {"name": "SEQ ID No:1 (MDL-2) Y32 (sulfated at Y32) (peptide)", "chain": "YPESDSAKDDGNQEKEKALLVKVQERSDDGDYDEYDNDETTHTPDPSAPTARPRIREHQA"}, "B2": {"name": "SEQ ID No:2 (MDL-1) Y33 (sulfated at Y33) (peptide)", "peptide": "YPERDSAKDGNEEQERALPVNVQERGEVADADYDDYDEEGTTPTVDPTAQTARPRLQGNQS", "modifications": "not checked"}, "B3": {"name": "SEQ ID No:2 (MDL-1) Un (unsulfated) (protein)", "chain": "B2 peptide"}, "B4": {"name": "SEQ ID No:1 (MDL-2) DS (sulfated at Y32 and Y35) (peptide)", "peptide": "B1 chain", "modifications": "not checked"}, "B5": {"name": "SEQ ID No:1 (MDL-2) Y35 (sulfated at Y35) (peptide)", "peptide": "B1 chain", "modifications": "not checked"}, "B6": {"name": "SEQ ID No:2 (MDL-1) DS (sulfated at Y33 and Y36) (peptide)", "peptide": "B2 peptide", "modifications": "not checked"}, "B7": {"name": "SEQ ID No:1 (MDL-2) Un (unsulfated) (protein)", "chain": "B1 chain"}, "B8": {"name": "SEQ ID No:2 (MDL-1) Y36 (sulfated at Y36) (peptide)", "chain": "B2 peptide"}}, "key": {"[1]": {"target": "T1, human α-thrombin (Haematologic Technologies) (human), P00734", "assay": "thrombin inhibition; sulfated at Y32", "conditions": "chains peptide; modification not given"}, "[2]": {"target": "T1, human α-thrombin (Haematologic …)", "assay": "inhibition of amidolytic activity of human α-thrombin (0.2 nM enzyme, chromogenic substrate Tos-Gly-Pro-Arg-pNA), tight-binding Morrison fit"}, "[3]": {"target": "T1, human α-thrombin (Haematologic …)", "assay": "thrombin inhibition; sulfated at Y33", "conditions": "chains peptide; modification not given"}, "[4]": {"target": "T1, human α-thrombin (Haematologic …)", "assay": "thrombin inhibition; unsulfated; unit from column head of Figure 1 table", "conditions": "chains peptide; modification not given"}, "[5]": {"target": "T1, human α-thrombin (Haematologic …)", "assay": "inhibition of amidolytic activity of human α-thrombin; reference is unsulfated SEQ ID No:1"}, "[6]": {"target": "T1, human α-thrombin (Haematologic …)", "assay": "thrombin inhibition; sulfated at Y32 and Y35", "conditions": "chains peptide; modification not given"}, "[7]": {"target": "T1, human α-thrombin (Haematologic …)", "assay": "thrombin inhibition; sulfated at Y35", "conditions": "chains peptide; modification not given"}, "[8]": {"target": "T1, human α-thrombin (Haematologic …)", "assay": "inhibition of amidolytic activity of human α-thrombin; reference is unsulfated SEQ ID No:2"}, "[9]": {"target": "T1, human α-thrombin (Haematologic …)", "assay": "thrombin inhibition; sulfated at Y33 and Y36", "conditions": "chains peptide; modification not given"}, "[10]": {"target": "T1, human α-thrombin (Haematologic …)", "assay": "thrombin inhibition; unsulfated", "conditions": "chains peptide; modification not given"}, "[11]": {"target": "T1, human α-thrombin (Haematologic …)", "assay": "thrombin inhibition; sulfated at Y36", "conditions": "chains peptide; modification not given"}}, "data": [{"binder": "B1", "values": [{"measurement": "Ki", "setting": "[1]", "result": 1.99, "unit": "nM"}, {"measurement": "Ki", "setting": "[2]", "result": "< 3", "unit": "nM"}]}, {"binder": "B2", "values": [{"measurement": "Ki", "setting": "[2]", "result": "< 20", "unit": "nM"}, {"measurement": "Ki", "setting": "[3]", "result": 3.59, "unit": "nM"}]}, {"binder": "B3", "values": [{"measurement": "Ki", "setting": "[4]", "result": 73.8, "unit": "nM"}]}, {"binder": "B4", "values": [{"measurement": "fold more potent than the unsulfated counterpart", "setting": "[5]", "result": "> 100", "unit": "fold"}, {"measurement": "Ki", "setting": "[6]", "result": 0.156, "unit": "nM"}, {"measurement": "Ki", "setting": "[2]", "result": "< 3", "unit": "nM"}]}, {"binder": "B5", "values": [{"measurement": "Ki", "setting": "[2]", "result": "< 3", "unit": "nM"}, {"measurement": "Ki", "setting": "[7]", "result": 2.77, "unit": "nM"}]}, {"binder": "B6", "values": [{"measurement": "fold more potent than the unsulfated counterpart", "setting": "[8]", "result": 10, "unit": "fold"}, {"measurement": "Ki", "setting": "[9]", "result": 2.06, "unit": "nM"}, {"measurement": "Ki", "setting": "[2]", "result": "< 20", "unit": "nM"}]}, {"binder": "B7", "values": [{"measurement": "Ki", "setting": "[10]", "result": 27.2, "unit": "nM"}]}, {"binder": "B8", "values": [{"measurement": "Ki", "setting": "[11]", "result": 17.6, "unit": "nM"}, {"measurement": "Ki", "setting": "[2]", "result": "< 20", "unit": "nM"}]}]}
